Data from article PMC8463877, “The binding of the small heat-shock protein αB-crystallin to fibrils of α-synuclein is driven by entropic forces” (Proceedings of the National Academy of Sciences of the …, 2021).

Assays:
Settings in all cases: both partners purified
[1] = target: T1, α-synuclein amyloid fibrils (unlabeled) (UniProt P37840 1-140); assay: microfluidic diffusional sizing; equilibrium titration, 1 to 100 μM α-syn fibrils with 1 μM αB-c, 25 °C, 3 d, PBS pH 7.2, 0.1 % NaN3; noncooperative single-site model, binding-site ratio 1:5.4 fixed; apparent
[2] = target: T1, α-synuclein amyloid fibrils (unlabeled); assay: microfluidic diffusional sizing; global analysis of the kinetics at 7, 10, 17, 20, 25, 30 and 37 °C: binding-site concentration fitted globally; nonlinear van't Hoff analysis of KD,app, reference temperature 310 K (37 °C value not used)
[3] = target: T1, α-synuclein amyloid fibrils (unlabeled); assay: microfluidic diffusional sizing; dissociation of bound αB-c followed in a saturated α-syn fibril solution at 7 °C
[4] = target: T1, α-synuclein amyloid fibrils (unlabeled); assay: microfluidic diffusional sizing; kinetics in free solution, 1 μM GFP-αB-c with 10 μM α-syn fibrils, 7 °C, PBS pH 7.2, 0.1 % NaN3; koff calculated from the association kinetics
[5] = target: T1, α-synuclein amyloid fibrils (unlabeled); assay: microfluidic diffusional sizing; kinetics in free solution, 1 μM GFP-αB-c with 10 μM α-syn fibrils, 25 °C, PBS pH 7.2, 0.1 % NaN3; aliquots over 50 to 150 h; second-order rate equation; apparent constants, KD from koff/kon, per monomer equivalent of αB-c
[6] = target: T1, α-synuclein amyloid fibrils (unlabeled); assay: microfluidic diffusional sizing; kinetics in free solution, 1 μM GFP-αB-c with 10 μM α-syn fibrils, 20 °C, PBS pH 7.2, 0.1 % NaN3; apparent constants, KD from koff/kon

Kd [1]: 261 ± 76 nM
dH [2]: 443 ± 107 kJ⋅mol^−1
stoichiometry N [2]: 5.4 α-syn equivalents per αB-c equivalent
koff [3]: 5.6e-05 s⁻¹
koff [4]: 2.6e-05 s⁻¹
Kd [5]: 373 ± 238 nM
koff [5]: 2.7e-06 s⁻¹
kon [5]: 7.1 ± 2.6 M⁻¹ s⁻¹
Kd [6]: 4100 ± 1700 nM
B1: GFP-labeled αB-crystallin (αB-c-TEV site-GFP-His tag) (natural protein)
chain: MDIAIHHPWIRRPFFPFHSPSRLFDQFFGEHLLESDLFPTSTSLSPFYLRPPSFLRAPSWFDTGLSEMRLEKDRFSVNLDVKHFSPEELKVKVLGDVIEVHGKHEERQDEHGFISREFHRKYRIPADVDPLTITSSLSSDGVLTVNGPRKQVSGPERTIPITREEKPAVTAAPKK
notes: αB-crystallin, small heat-shock protein; Arrangement as printed: αB-c-TEV site-GFP-His tag; a TEV site lies between αB-c and GFP; Present as a polydisperse ensemble of oligomers; concentrations are in monomer equivalents; also called αB-c-GFP; small heat-shock protein αB-crystallin; not shown: GFP, C-terminal, kept
